Measured values as given in the supplement of paper PMC9170038.

Tested on: MS2 coat protein
Assay: apparent KD of MS2 coat protein; higher = weaker reporter binding
Conditions: Eterna round: R107
Outline: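 Apparent KD was obtained for each design as the median of normalised binding-curve fits over its clusters. RNA switches transcribed on-chip from Illumina sequencing clusters were titrated with SNAP-549-labelled MS2 coat protein (twofold steps, 0.7 or 1.5 nM to 3 µM) in 100 mM Tris-HCl pH 7.5, 80 mM KCl, 4 mM MgCl2, without or with constant ligand.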

[1] = input ligand: theophylline 20 uM
[2] = input ligand: theophylline 2 mM
[3] = input ligand: tryptophan 2.4 mM

Row | Sequence | apparent KD of MS2 coat protein (input ligand: arginine 13.2 mM) [nM] | apparent KD of MS2 coat protein (input ligand: none) [nM] | apparent KD of MS2 coat protein [1] [nM] | apparent KD of MS2 coat protein [2] [nM] | apparent KD of MS2 coat protein [3] [nM]
1 | UUAAUGAUAUAUCAUAUGAUAUAUCCAGAAGGAGCGUCAUAAAUGGCAGGUAGGUCGCUGAAGGCAACAUGAGGAUCACCCAUGU [#16 Same State - Arginine A] | 20.1 | 28.6 | 44.6 | 32.6 | 24.4
2 | AUGGCGUUGGUGGAGCGGUGAAAUGGCGAUACCAGCGUGGAAACACGCCCUUGGCAGCGCCAAAACAUGAGGAUCACCCAUGUUA [Usti] | 18.9 | 20.3 | 46 | 59.8 | 18.1
3 | UUCUGGUCCCGUGAUACCAGAGACAUGAGGAUCACCCAUGUACAUGAGGAUCACCCAUGUUUCCCUUGGCAGCACUGCAGUGAGC [Exclusion Theophylline B GF 15] | 56 | 261 | 160 | 332 | 147
4 | AUAGUCUAGAGUGAUACCAGACAACAUGAGGAUCACCCAUGUAGCAUAUGGUUAUCAUGAGUCCCUUGGCAGCACGCAUGUAUAG [JR_ExcTheophyB_Sub012] | 13.4 |  | 19.9 |  | 13.2
5 | UGUCGCAGGUUAGAUACCAGCGAGGCGCGGGUAAAUGUUCACAUGAGGAUCACCCAUGUUCGCCCUUGGCAGCUAGUAGGCAUAA [theeternabot_exclusion_MS2_Theo_B_36] | 23.9 |  | 34 |  | 27.3
6 | AAAAUAAAUAAAACGCGUAACAUGAAGGAUACCAGCCAGAAAACUGGCCCUUGGCAGCCUCUACAUGAGGAUCACCCAUGUCGCG [Mat - Same State Theophlline A - Mod of Eli - D15] | 161 |  | 141 |  | 332
7 | UGGUACAUGAGGAUCACCCAUGUUCCAGAUACCAGUGUCCCGCUGCACCCUUGGCAGCUGGUGGCACAUGAGGAUCACCCAUGUG [Exclusion Theophylline A GF12] | 11.5 |  | 16.3 |  | 15.1
8 | AAUAAUAGGUGAUCCUAACGAGUGGCAUAACGAGGACCGGUACGGCCGCCACUCGAACAUGAGGAUCACCCAUGUAGUCACUCGA [M'-T'-T-MS2-T'' - Design 5] | 82.9 |  | 280 | 751 | 
9 | UUGGAUGAAGGAGUGAAAAGCAACUCAGAUACCAGUCUGAGUAAUGACCCUUGGCAGCUGAGAACAUGAGGAUCACCCAUGUGAC [theeternabot_exclusion_MS2_Theo_A_34] | 11.7 |  | 15.5 |  | 17.1
10 | GAACAUAUGGAUACUAUUAUGAGCACAGAAGGAGCGAGCGGAAGCUCAGGUAGGUCGCUGGGUAACAUGAGGAUCACCCAUGUUG [XArg-A sub1] | 18.7 | 19.1 | 24.7 | 25.6 | 20.8
11 | CGUAUUGGAAACAGUACGAGUGAUCCGGUCCGAGGACCGGUACGGCCGCCACUCGAAAAUAAAUAACAUGAGGAUCACCCAUGUA [Ex Tryptophan A 8] | 19.5 |  | 21.6 | 19.8 | 
12 | GGACUAACCAGAAGGAGCGACACGCAGAAACUGCUAUUUCCUCCGCACGAGGAUCACCCGUGUCAGGUAGGUCGCUGGUUAGUCG [ArgBX 28] | 22.1 | 19.5 | 25.4 | 20.3 | 21.4
13 | AUAUGAUCAUGUGAUACCAGAAAUGGUAGUCCUCGCUGGAUUACAUGAGGAUCACCCAUGUUCCCUUGGCAGCAUAUGAUCAUAU [#02 Exclusion-TheophyllineB] | 50.5 |  | 122 |  | 60.9
14 | AAUAACAUGAGGAUCACCCAUGUAAGUAAACGAGGACCGGUACGGCCGCCACUCGAAUAAAUAAAGUACCGGUAAGAUCCAGGGA [Default title] | 14.6 |  | 19 | 15.4 | 
15 | AGCCACUCGAGUGAUCCUCACGAGUGGCUACGAGGACCGGUACGGCCGCCACUCGAAUUAACAUGAGGAUCACCCAUGUAAUCUC [Brourdmod06] | 38.7 |  | 238 | 344 | 
